Data published in paper PMC3470569, “Probing Subunit-Subunit Interactions in the Yeast Vacuolar ATPase by Peptide Arrays” (PLoS ONE, 2012).
Ends that are not written are not given here. cellulose = not defined here

T1: C-terminal domain of subunit H (HCT), N-terminal MBP fusion (S. cerevisiae, UniProt P41807 353-478)
T1 construct: V-ATPase subunit H (Vma13p), S. cerevisiae, C-terminal globular domain 353-478 (126 amino acids); Construct provided by the laboratory of Dr. Patricia Kane; also called MBP-HCT; source: E. coli, purified (amylose column; ultrafiltration or size exclusion chromatography); not shown: MBP, N-terminal, kept
T1 sequence (looked up): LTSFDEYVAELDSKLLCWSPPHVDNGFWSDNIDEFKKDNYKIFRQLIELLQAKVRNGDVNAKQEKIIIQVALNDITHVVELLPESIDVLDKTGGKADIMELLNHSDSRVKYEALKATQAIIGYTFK

T2: subunit G (Vma10p) with FLAG tag (S. cerevisiae, UniProt P48836 1-114)
T2 construct: V-ATPase subunit G (Vma10p), S. cerevisiae, 114 amino acids; also called G-FLAG; FLAG-G; source: E. coli, from the bicistronic MBP-FLAG-G / E construct, purified (amylose, PreScission cleavage of MBP, DEAE, amylose); not shown: MBP, N-terminal, cleaved
T2 sequence (looked up): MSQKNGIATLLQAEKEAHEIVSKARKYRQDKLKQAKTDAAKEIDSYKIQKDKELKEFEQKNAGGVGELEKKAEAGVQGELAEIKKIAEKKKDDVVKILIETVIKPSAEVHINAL

T3: full-length subunit H (Vma13p), N-terminal MBP fusion (S. cerevisiae, UniProt P41807 1-478)
T3 construct: V-ATPase subunit H (Vma13p), S. cerevisiae, 478 amino acids; Construct provided by the laboratory of Dr. Patricia Kane; also called MBP-H; source: E. coli, purified (amylose column; ultrafiltration or size exclusion chromatography); not shown: MBP, N-terminal, kept
T3 sequence (looked up): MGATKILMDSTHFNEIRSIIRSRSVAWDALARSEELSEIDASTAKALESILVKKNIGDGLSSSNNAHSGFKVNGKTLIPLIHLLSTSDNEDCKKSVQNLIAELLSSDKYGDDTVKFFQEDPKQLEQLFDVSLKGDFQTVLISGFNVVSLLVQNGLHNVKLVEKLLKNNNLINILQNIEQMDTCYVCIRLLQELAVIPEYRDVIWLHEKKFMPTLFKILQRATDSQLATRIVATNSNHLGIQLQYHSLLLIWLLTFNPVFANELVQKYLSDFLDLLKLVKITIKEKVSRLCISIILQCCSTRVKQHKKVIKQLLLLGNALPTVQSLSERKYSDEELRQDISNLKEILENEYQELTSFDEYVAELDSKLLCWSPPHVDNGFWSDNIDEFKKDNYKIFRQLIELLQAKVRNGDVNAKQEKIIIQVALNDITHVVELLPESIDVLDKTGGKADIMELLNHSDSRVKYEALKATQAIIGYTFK

T4: subunit E (Vma4p), N-terminal MBP fusion (S. cerevisiae, UniProt P22203 1-233)
T4 construct: V-ATPase subunit E (Vma4p), S. cerevisiae, 233 amino acids; also called MBP-E; source: E. coli, purified (amylose column); not shown: MBP, N-terminal, kept
T4 sequence (looked up): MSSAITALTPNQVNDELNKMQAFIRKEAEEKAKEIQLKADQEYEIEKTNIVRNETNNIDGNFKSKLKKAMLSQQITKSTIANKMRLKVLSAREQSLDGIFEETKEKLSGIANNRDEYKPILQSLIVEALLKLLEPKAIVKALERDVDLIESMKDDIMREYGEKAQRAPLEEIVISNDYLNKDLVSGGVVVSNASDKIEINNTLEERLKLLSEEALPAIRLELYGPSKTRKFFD

T5: EG heterodimer (untagged subunit E with FLAG-tagged subunit G) (S. cerevisiae, UniProt P22203 1-233; P48836 1-114)
T5 construct: V-ATPase subunit E (Vma4p), S. cerevisiae, tagless; V-ATPase subunit G (Vma10p), S. cerevisiae; also called EG-FLAG; source: E. coli, co-expressed from one bicistronic plasmid, purified (amylose, PreScission cleavage of MBP, DEAE, amylose); not shown: MBP, N-terminal, cleaved; FLAG, N-terminal, kept
T5 sequence (looked up) 1: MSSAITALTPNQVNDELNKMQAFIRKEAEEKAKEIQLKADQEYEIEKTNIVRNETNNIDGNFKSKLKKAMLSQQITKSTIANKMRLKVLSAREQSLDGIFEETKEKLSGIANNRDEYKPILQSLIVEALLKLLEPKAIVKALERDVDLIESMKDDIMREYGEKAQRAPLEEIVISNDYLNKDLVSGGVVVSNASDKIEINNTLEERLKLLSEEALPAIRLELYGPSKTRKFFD
T5 sequence (looked up) 2: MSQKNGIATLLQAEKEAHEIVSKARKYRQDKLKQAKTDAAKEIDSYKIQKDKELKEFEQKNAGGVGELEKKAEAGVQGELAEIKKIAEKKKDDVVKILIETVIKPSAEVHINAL


How the values were obtained:
Assay in all cases: peptide or protein array; 20-mer peptides linked at their C-terminal end to cellulose and spotted in duplicate on glass slides; blocked in 2% nonfat milk; purified probe at 4 µM in TBS for 1 hour at 4°C; bound probe detected through MBP or FLAG with HRP-coupled antibody (chemiluminescence); hits by ANOVA (p 0.05, Bonferroni) and HCL in MeV, score of at least 1 in 75% of the spots
Conditions in all cases: both partners purified
[1] = biological target: T1, C-terminal domain of subunit H (HCT), …
[2] = biological target: T2, subunit G (Vma10p) with FLAG tag
[3] = biological target: T3, full-length subunit H (Vma13p), …
[4] = biological target: T4, subunit E (Vma4p), N-terminal MBP fusion
[5] = biological target: T5, EG heterodimer (untagged subunit E with …)

Row | Binder | binding result [3] | binding result [4] | other results
1 | ATDSQLATRIVATNSNHLGI-cellulose (peptide, UniProt P41807 221-240, looked up, reading uncertain, source: synthetic peptide, spotted on glass slide array (Intavis)) [H(221-240)] | – | – | binding result [1]: binds; binding result [2]: binds
2 | LTGYITEGQIFVDRQLHNKG-cellulose (peptide, UniProt P16140 349-368, looked up, reading uncertain, source: synthetic peptide, spotted on glass slide array (Intavis)) [B(349-368)] | binds | – | binding result [2]: binds
3 | LPPHFNIKIIAVPPKNLSKC-cellulose (peptide, UniProt P31412 321-340, looked up, reading uncertain, source: synthetic peptide, spotted on glass slide array (Intavis)) [C(321-340)] | binds | – | binding result [1]: binds
4 | QEGKTTKEEITDKFNHFTEE-cellulose (peptide, UniProt P39111 41-60, looked up, reading uncertain, V-ATPase subunit F, S. cerevisiae, residues 41-60; source: synthetic peptide, spotted on glass slide array (Intavis)) [F(41-60)] | binds | binds | –
5 | ILEIPSKDHPYDPEKDSVLK-cellulose (peptide, UniProt P39111 91-110, looked up, reading uncertain, V-ATPase subunit F, S. cerevisiae, residues 91-110; source: synthetic peptide, spotted on glass slide array (Intavis)) [F(91-110)] | binds | – | binding result [5]: binds; binding result [2]: binds
6 | RNGLLSNNQYINLTQCDTLE-cellulose (peptide, UniProt P32366 21-40, looked up, reading uncertain, V-ATPase Vo subunit d, S. cerevisiae, residues 21-40; source: synthetic peptide, spotted on glass slide array (Intavis)) [d(21-40)] | binds | binds | –
7 | YGNFLSSVSSESLTTSLIQE-cellulose (peptide, UniProt P32366 51-70, looked up, reading uncertain, V-ATPase Vo subunit d, S. cerevisiae, residues 51-70; source: synthetic peptide, spotted on glass slide array (Intavis)) [d(51-70)] | binds | binds | –
8 | GWFDTLPTLSVATDLESLYE-cellulose (peptide, UniProt P32366 131-150, looked up, reading uncertain, source: synthetic peptide, spotted on glass slide array (Intavis)) [d(131-150)] | binds | binds | –
9 | FRDLNSKVRAFQRTFVNEIR-cellulose (peptide, UniProt P32563 41-60, looked up, reading uncertain, V-ATPase Vo subunit a (gene Vph1), S. cerevisiae, residues 41-60; source: synthetic peptide, spotted on glass slide array (Intavis)) [a(41-60)] | binds | – | binding result [1]: binds
10 | FQRTFVNEIRRLDNVERQYR-cellulose (peptide, UniProt P32563 51-70, looked up, reading uncertain, V-ATPase Vo subunit a (gene Vph1), S. cerevisiae, residues 51-70; source: synthetic peptide, spotted on glass slide array (Intavis)) [a(51-70)] | binds | – | binding result [1]: binds
11 | FLDLLKLVKITIKEKVSRLC-cellulose (peptide, UniProt P41807 271-290, looked up, reading uncertain, source: synthetic peptide, spotted on glass slide array (Intavis)) [H(271-290)] | binds | – | binding result [2]: binds
12 | LDTNHTPPTFHRTNKFTAGF-cellulose (peptide, UniProt P32563 371-390, looked up, reading uncertain, source: synthetic peptide, spotted on glass slide array (Intavis)) [a(371-390)] | – | – | binding result [1]: binds; binding result [2]: binds
13 | AWHGTENALLFSNSYKMKLS-cellulose (peptide, UniProt P32563 521-540, looked up, reading uncertain, source: synthetic peptide, spotted on glass slide array (Intavis)) [a(521-540)] | – | – | binding result [1]: binds
14 | SDEELRQDISNLKEILENEY-cellulose (peptide, UniProt P41807 331-350, looked up, reading uncertain, V-ATPase subunit H (Vma13p), S. cerevisiae; source: synthetic peptide, spotted on glass slide array (Intavis)) [H(331)] | – | binds | –
15 | KAEAGVQGELAEIKKIAEKK-cellulose (peptide, UniProt P48836 71-90, looked up, reading uncertain, V-ATPase subunit G (Vma10p), S. cerevisiae, residues 71-90; source: synthetic peptide, spotted on glass slide array (Intavis)) [G(71-90)] | binds | binds | –
16 | TENTIAYINSELDELDREEF-cellulose (peptide, UniProt P32610 181-200, looked up, reading uncertain, source: synthetic peptide, spotted on glass slide array (Intavis)) [D(181-200)] | – | binds | –
17 | GEEALSIEDKLSLEFLEKFE-cellulose (peptide, UniProt P16140 421-440, looked up, reading uncertain, V-ATPase subunit B, S. cerevisiae; source: synthetic peptide, spotted on glass slide array (Intavis)) [B(421)] | – | binds | –
18 | EVIKVTNRRVNAIEHVIIPR-cellulose (peptide, UniProt P32610 161-180, looked up, reading uncertain, source: synthetic peptide, spotted on glass slide array (Intavis)) [D(161-180)] | – | – | binding result [2]: binds
19 | RNKLYKAYLEDFYNFVTEEI-cellulose (peptide, UniProt P32366 181-200, looked up, reading uncertain, source: synthetic peptide, spotted on glass slide array (Intavis)) [d(181-200)] | – | binds | –
20 | DFEGVRAALANVYEYRGFLE-cellulose (peptide, UniProt P32366 261-280, looked up, reading uncertain, source: synthetic peptide, spotted on glass slide array (Intavis)) [d(261-280)] | – | binds | –
21 | IEVQKNDLEQYRFILQSGDE-cellulose (peptide, UniProt P32563 131-150, looked up, reading uncertain, source: synthetic peptide, spotted on glass slide array (Intavis)) [a(131-150)] | – | binds | –
22 | FFLKGDNTDSTSYMDEDMID-cellulose (peptide, UniProt P32563 151-170, looked up, reading uncertain, source: synthetic peptide, spotted on glass slide array (Intavis)) [a(151-170)] | – | binds | –
23 | LSDLYTVLKTTSTTLESELY-cellulose (peptide, UniProt P32563 281-300, looked up, reading uncertain, source: synthetic peptide, spotted on glass slide array (Intavis)) [a(281-300)] | – | binds | binding result [5]: binds
24 | EAQQLISAMDADDAEEEEVG-cellulose (peptide, UniProt P32563 681-700, looked up, reading uncertain, source: synthetic peptide, spotted on glass slide array (Intavis)) [a(681-700)] | – | binds | –
25 | DCKKSVQNLIAELLSSDKYG-cellulose (peptide, UniProt P41807 91-110, looked up, reading uncertain, V-ATPase subunit H (Vma13p), S. cerevisiae, residues 91-110; source: synthetic peptide, spotted on glass slide array (Intavis)) [H(91-110)] | – | – | binding result [5]: binds
26 | DTCYVCIRLLQELAVIPEYR-cellulose (peptide, UniProt P41807 181-200, looked up, cysteine pairing not given here; reading uncertain, source: synthetic peptide, spotted on glass slide array (Intavis)) [H(181-200)] | – | – | binding result [5]: binds
27 | VRNETNNIDGNFKSKLKKAM-cellulose (peptide, UniProt P22203 51-70, looked up, reading uncertain, V-ATPase subunit E (Vma4p), S. cerevisiae, residues 51-70; source: synthetic peptide, spotted on glass slide array (Intavis)) [E(51-70)] | – | – | binding result [5]: binds
28 | TSTTLESELYAIAKELDSWF-cellulose (peptide, UniProt P32563 291-310, looked up, reading uncertain, source: synthetic peptide, spotted on glass slide array (Intavis)) [a(291-310)] | – | – | binding result [5]: binds
